Measured values reported in the Immune Epitope Database (IEDB).

Tests used:
Experiment in all cases: IEDB peptide-MHC binding, purified MHC/competitive/fluorescence; filed as Kd, often an IC50 or EC50 that approximates it; ≥ and ≤ were set here for values at or beyond the usual limits of such assays
Settings in all cases: source organism: Vibrio cholerae 2740-80
[1] = molecular target: HLA-A*66:01
[2] = molecular target: HLA-A*11:01
[3] = molecular target: HLA-B*53:01
[4] = molecular target: HLA-B*07:02
[5] = molecular target: HLA-B*44:02
[6] = molecular target: HLA-A*30:01
[7] = molecular target: HLA-B*14:02

Measured: Kd

MGMEQTMSV
≥ 5 µM: all assays above
